Test results taken from patent US10052364B2, “Osteocalcin as a treatment for cognitive disorders” (THE TRUSTEES OF COLUMBIA UNIVERSITY IN THE CITY OF NEW YORK, priority 2013, dated 2018).
No end group written: not given here.

B1: leptin: adipocyte-derived hormone, positive control known to cross the BBB (protein, UniProt P41160 22-167, looked up)
Leptin: VPIQKVQDDTKTLIKTIVTRINDISHTQSVSAKQRVTGLDFIPGLHPILSLSKMDQTLAVYQQVLTSLPSQNVLQIANDLENLRDLLHLLAFSKSCSLPQTSGLQKPESLDGVLEASLYSTEVVALSRLQGSLQDILQQLDVSPEC

How the values were obtained:
[1] = test system: mouse primary hindbrain neurons (MPHN); test: Calcium flux in primary hindbrain neurons; format: cell-based; details: MPHN treated with undercarboxylated or carboxylated osteocalcin
Experimental: For calcium imaging, primary hindbrain neurons seeded on 12 mm coverslips were allowed the appropriate time to form structural networks. These cultures were washed with HBSS and loaded with 2.5 μM FURA-2, AM calcium indicator for 45 minutes at room temperature, according to the manufacturer's protocol. Cells were then washed to remove excess indicator and incubated for 30 minutes to allow internalized esters to become de-esterified. 30 ng/ml of osteocalcin was prepared with the control buffer of 1×HBBS supplemented with 10 mM HEPES buffer and 2 mM CaCl2. Using a Zeiss microscope with a perfusion system, coverslips were first perfused with control and osteocalcin. After each stimulation, cells were depolarized with 50 mM KCl to determine the percentage of live cells being imaged. All treatments were recorded using two-photon laser scanning microscopy by Prairie Technologies and analyzed by Z axis profile plotting using ImageJ.
To determine if osteocalcin acts directly on neurons to modulate neurotransmitter synthesis, several types of assays were performed. First, brainstem and midbrain explants from WT and Gprc6a^−/− mice were generated. […] Third, to further confirm that osteocalcin signals in neurons of the hindbrain, calcium flux in MPHN treated with undercarboxylated or carboxylated osteocalcin (FIG. 3F) was measured. […]

[2] = Positive control for blood brain barrier crossing: subcutaneous leptin infusion in ob/ob mice, content measured in brain; format: in vivo, mouse; details: subcutaneous infusion 50 ng/hour, seven days, 3 month-old ob/ob mice
Experimental: FIG. 3. Osteocalcin binds to neurons in the brain. (A) Measurement of the total osteocalcin in 3 month-old Osteocalcin^−/− mice infused subcutaneously for 7 days with either uncarboxylated osteocalcin (300 ng/hour, right panel) or PBS (left panel). Osteocalcin levels were measured in bone, serum, and different parts of the brain (cortex, midbrain, hypothalamus, brainstem, and cerebellum). (B) Subcutaneous infusion of leptin ([…], right panel) or PBS (left panel) for 7 days in ob/ob mice. Leptin levels were measured in serum, cortex, midbrain, hypothalamus, brainstem, and cerebellum. […]
Osteocalcin^−/−, Gprc6a^−/−, Osteocalcin-mCherry, and Osteocalcin floxed mice have been previously described (Ducy et al., 1996, Nature 382:448-452; Oury et al., 2011, Cell 144:796-809). Mouse genotypes were determined by PCR. […] Leptin and osteocalcin content in sera and tissues were determined by ELISA.
To understand how this behavioral phenotype develops, whether osteocalcin crosses the blood brain barrier (BBB) was tested by installing pumps that subcutaneously delivered vehicle or uncarboxylated osteocalcin (50 ng/hour) in three-month-old Osteocalcin^−/− mice. […] Seven days later, osteocalcin and leptin content were measured in blood, bone, and in various parts of the brain in Osteocalcin−/− and ob/ob mice, respectively. […]

[3] = test system: brainstem and midbrain explants from WT and Gprc6a-/- mice; test: Gene expression (qPCR) in brainstem and midbrain explants; format: cell-based, mouse; details: leptin, WT or Gprc6a-/- brainstem explants
Experimental: For gene expression studies, RNA was isolated from primary neurons or tissue using TRIZOL® (Invitrogen). cDNA synthesis was performed following a standard protocol from Invitrogen and qPCR analyses were done using specific quantitative PCR primers from SABiosciences (www.sabiosciences.com/RT2PCR.php).
Brains were dissected and incubated for 30 minutes in ice cold oxygenated artificial cerebrospinal fluid (ACSF). Brains were then sliced at 500 μm at the midbrain, −1.55 to −2.35 mm from the bregma, and at the level of the brainstem, from −4.04 to −4.48 mm and from −4.60 to −5.20 mm from the bregma, to include the median and dorsal raphe, respectively. These slices were incubated in ACSF for 1 h, constantly oxygenated (95% 02 and 5% CO2) for 4 h, after which they were treated with either osteocalcin (10 ng/ml) or PBS for four hours. Expression of Tph2, TH, GAD1, GAD2, and Ddc was measured by qPCR.
To determine if osteocalcin acts directly on neurons to modulate neurotransmitter synthesis, several types of assays were performed. First, brainstem and midbrain explants from WT and Gprc6a^−/− mice were generated. Brains were sliced (500 μm) at the level of the median and dorsal raphe of the brainstem (from −4.04 to −4.48 mm and from −4.60 to −5.20 mm, respectively), so that they would be enriched in serotonin-producing neurons, as well as at the level of substantia nigrae and ventral tegmental areas (VTA) of the midbrain (from −1.55 to −2.35 mm and from −2.55 to −3.25 mm, respectively). Enrichment in serotoninergic and catecholaminergic neurons in these explants was verified by their high Tph2 and Th expression. While leptin, used here as a positive control, reduced, as it should, Tph2 expression in WT or Gprc6a^−/− brainstem explants, osteocalcin (3 ng/ml) increased expression of this gene 2.5 fold in both WT and Gprc6a^−/− explants. (FIG. 3D). Additionally, osteocalcin increased Th expression in midbrain explants and decreased Gad1 expression in both WT and in Gprc6a^−/− hindbrain explants (FIG. 3D). Second, the cultured WT and Gprc6a^−/− mouse primary hindbrain neurons (MPHN) were treated with osteocalcin (3 ng/ml). […] Third, to further confirm that osteocalcin signals in neurons of the hindbrain, calcium flux in MPHN treated with undercarboxylated or carboxylated osteocalcin (FIG. 3F) was measured. […] Moreover, osteocalcin inhibits the action potential frequency of the GABAergic interneurons of the hindbrain (FIG. 3H).

Molecule	calcium fluxes in primary hindbrain neurons [1]	leptin content in parts of the brain [2]	Tph2 expression in brainstem explants (positive control) [3]
carboxylated osteocalcin: Carboxylated (Gla) form of osteocalcin used as comparison in the calcium flux assay (YLGASVPSPDPLEPTREQCELNPACDELSDQYGLKTAYKRIYGITI; ends and bridges not checked; also: gamma-carboxylated (Gla) form, places not given here; UniProt P86546 50-95, looked up) [reference compound]	not		
B1		could be detected in the brainstem and hypothalamus	reduced
